B1: Zinc finger homeobox protein 3, residues 2244 to 2299; numbered along this chain, Q15911 (parent)
chain: SSRTRFTDYQLRVLQDFFDANAYPKDDEFEQLSNLLNLPTRVIVVWFQNARQKARK

± gives the uncertainty stated by the source.

The values below come from the Human Domainome abundance scans (Beltran et al. 2025).

The data set covers variants of B1. In words: abundance fitness (aPCA) (normalised: wild type 0, dead -1); higher = more abundant; growth selection in yeast, the domain comes from the species named. Particulars: Homo sapiens.
Consider SSRTRFTDYQLRVLQDFFDANAYPKDDHFEQLSNLLNLPTRVIVVWFQNARQKARK [E28H], for which the abundance fitness was -0.435 ± 0.2.

For the variant SSRTRFTDYQLRVLQDFFDANAYPKDDTFEQLSNLLNLPTRVIVVWFQNARQKARK [E28T], the abundance fitness is -0.236 ± 0.13.

On to SSRTRFTDYQLRVLQDFFDANAYPKDDFFEQLSNLLNLPTRVIVVWFQNARQKARK [E28F], for which the abundance fitness is -0.603 ± 0.21.

SSRTRFTDYQLRVLQDFFDANAYPKDDMFEQLSNLLNLPTRVIVVWFQNARQKARK [E28M]: the abundance fitness is -0.347 ± 0.14.

On to SSRTRFTDYQLRVLQDFFDANAYPKDDQFEQLSNLLNLPTRVIVVWFQNARQKARK [E28Q], for which the abundance fitness was -0.169 ± 0.13.

As to SSRTRFTDYQLRVLQDFFDANAYPKDDLFEQLSNLLNLPTRVIVVWFQNARQKARK [E28L], the abundance fitness is -0.739 ± 0.11.

As for SSRTRFTDYQLRVLQDFFDANAYPKDDEFEQHSNLLNLPTRVIVVWFQNARQKARK [L32H], the abundance fitness was -0.878 ± 0.24.

As to SSRTRFTDYQLRVLQDFFDANAYPKDDEFEQFSNLLNLPTRVIVVWFQNARQKARK [L32F], the abundance fitness is -0.546 ± 0.16.

As for SSRTRFTDYQLRVLQDFFDANAYPKDDEFEQISNLLNLPTRVIVVWFQNARQKARK [L32I], the abundance fitness was -0.17 ± 0.27.

As for SSRTRFTDYQLRVLQDFFDANAYPKDDEFEQTSNLLNLPTRVIVVWFQNARQKARK [L32T], the abundance fitness is -0.497 ± 0.13.

In the case of SSRTRFTDYQLRVLQDFFDANAYPKDDEFEQMSNLLNLPTRVIVVWFQNARQKARK [L32M], the abundance fitness was determined as 0.003 ± 0.11.

With SSRTRFTDYQLRVLQDFFDANAYPKDDEFEQASNLLNLPTRVIVVWFQNARQKARK [L32A], the abundance fitness is -0.568 ± 0.1.

Consider SSRTRFTDYQLRVLQDFFDANAYPKDDEFEQCSNLLNLPTRVIVVWFQNARQKARK [L32C], for which the abundance fitness is -0.641 ± 0.14.

As for SSRTRFTDYQLRVLQDFFDANAYPKDDEFEQRSNLLNLPTRVIVVWFQNARQKARK [L32R], the abundance fitness was -0.856 ± 0.1.

As for SSRTRFTDYQLRVLQDFFDANAYPKDDEFEQGSNLLNLPTRVIVVWFQNARQKARK [L32G], the abundance fitness is -0.842 ± 0.083.

For the variant SSRTRFTDYQLRVLQDFFDANAYPKDDEFEQSSNLLNLPTRVIVVWFQNARQKARK [L32S], the abundance fitness is -0.812 ± 0.13.

Take SSRTRFTDYQLRVLQDFFDANAYPKDDEFEQESNLLNLPTRVIVVWFQNARQKARK [L32E]: the abundance fitness is -0.957 ± 0.13.

Turning to SSRTRFTDYQLRVLQDFFDANAYPKDDEFEQVSNLLNLPTRVIVVWFQNARQKARK [L32V], the abundance fitness is -0.151 ± 0.083.

For SSRTRFTDYQLRVLQDFFDANAYPKDDEFEQYSNLLNLPTRVIVVWFQNARQKARK [L32Y], the abundance fitness is -0.19 ± 0.31.

For the variant SSRTRFTDYQLRVLQDFFDANAYPKDDEFEQWSNLLNLPTRVIVVWFQNARQKARK [L32W], the abundance fitness is -0.56 ± 0.1.

Regarding SSRTRFTDYQLRVLQDFFDANAYPKDDEFEQPSNLLNLPTRVIVVWFQNARQKARK [L32P], the abundance fitness was -1.02 ± 0.32.

With SSRTRFTDYQLRVLQDFFDANAYPKDDEFEQDSNLLNLPTRVIVVWFQNARQKARK [L32D], the abundance fitness is -0.637 ± 0.33.

Consider SSRTRFTDYQLRVLQDFFDANAYPKDDEFEQLYNLLNLPTRVIVVWFQNARQKARK [S33Y], for which the abundance fitness was -0.871 ± 0.23.

For the variant SSRTRFTDYQLRVLQDFFDANAYPKDDEFEQLANLLNLPTRVIVVWFQNARQKARK [S33A], the abundance fitness is -0.109 ± 0.1.

With SSRTRFTDYQLRVLQDFFDANAYPKDDEFEQLCNLLNLPTRVIVVWFQNARQKARK [S33C], the abundance fitness was -0.498 ± 0.15.

Regarding SSRTRFTDYQLRVLQDFFDANAYPKDDEFEQLVNLLNLPTRVIVVWFQNARQKARK [S33V], the abundance fitness is -0.452 ± 0.1.

In the case of SSRTRFTDYQLRVLQDFFDANAYPKDDEFEQLRNLLNLPTRVIVVWFQNARQKARK [S33R], the abundance fitness is -0.05 ± 0.077.

SSRTRFTDYQLRVLQDFFDANAYPKDDEFEQLNNLLNLPTRVIVVWFQNARQKARK [S33N]: the abundance fitness is -0.728 ± 0.23.

For the variant SSRTRFTDYQLRVLQDFFDANAYPKDDEFEQLINLLNLPTRVIVVWFQNARQKARK [S33I], the abundance fitness was -1.08 ± 0.36.

As for SSRTRFTDYQLRVLQDFFDANAYPKDDEFEQLTNLLNLPTRVIVVWFQNARQKARK [S33T], the abundance fitness was -0.316 ± 0.14.

Regarding SSRTRFTDYQLRVLQDFFDANAYPKDDEFEQLKNLLNLPTRVIVVWFQNARQKARK [S33K], the abundance fitness is -0.129 ± 0.18.

Consider SSRTRFTDYQLRVLQDFFDANAYPKDDEFEQLDNLLNLPTRVIVVWFQNARQKARK [S33D], for which the abundance fitness was -0.833 ± 0.18.

Turning to SSRTRFTDYQLRVLQDFFDANAYPKDDEFEQLWNLLNLPTRVIVVWFQNARQKARK [S33W], the abundance fitness is -0.848 ± 0.13.

As for SSRTRFTDYQLRVLQDFFDANAYPKDDEFEQLMNLLNLPTRVIVVWFQNARQKARK [S33M], the abundance fitness was -0.638 ± 0.17.

Turning to SSRTRFTDYQLRVLQDFFDANAYPKDDEFEQLHNLLNLPTRVIVVWFQNARQKARK [S33H], the abundance fitness was -0.085 ± 0.17.

With SSRTRFTDYQLRVLQDFFDANAYPKDDEFEQLENLLNLPTRVIVVWFQNARQKARK [S33E], the abundance fitness was -0.5 ± 0.15.

In the case of SSRTRFTDYQLRVLQDFFDANAYPKDDEFEQLQNLLNLPTRVIVVWFQNARQKARK [S33Q], the abundance fitness was -0.507 ± 0.17.

As to SSRTRFTDYQLRVLQDFFDANAYPKDDEFEQLGNLLNLPTRVIVVWFQNARQKARK [S33G], the abundance fitness was -0.083 ± 0.075.

As to SSRTRFTDYQLRVLQDFFDANAYPKDYEFEQLSNLLNLPTRVIVVWFQNARQKARK [D27Y], the abundance fitness is -0.16 ± 0.13.

Take SSRTRFTDYQLRVLQDFFDANAYPKDWEFEQLSNLLNLPTRVIVVWFQNARQKARK [D27W]: the abundance fitness was -0.157 ± 0.082.

Consider SSRTRFTDYQLRVLQDFFDANAYPKDDEFEQLSELLNLPTRVIVVWFQNARQKARK [N34E], for which the abundance fitness was determined as 0.118 ± 0.14.

Consider SSRTRFTDYQLRVLQDFFDANAYPKDDEFEQLSCLLNLPTRVIVVWFQNARQKARK [N34C], for which the abundance fitness is -0.343 ± 0.29.

For SSRTRFTDYQLRVLQDFFDANAYPKDDEFEQLSGLLNLPTRVIVVWFQNARQKARK [N34G], the abundance fitness is -0.058 ± 0.13.

As to SSRTRFTDYQLRVLQDFFDANAYPKDDEFEQLSLLLNLPTRVIVVWFQNARQKARK [N34L], the abundance fitness was -0.17 ± 0.15.

SSRTRFTDYQLRVLQDFFDANAYPKDDEFEQLSALLNLPTRVIVVWFQNARQKARK [N34A]: the abundance fitness came out at 0.067 ± 0.14.

As to SSRTRFTDYQLRVLQDFFDANAYPKDDEFEQLSDLLNLPTRVIVVWFQNARQKARK [N34D], the abundance fitness was -0.199 ± 0.26.

On to SSRTRFTDYQLRVLQDFFDANAYPKDDEFEQLSKLLNLPTRVIVVWFQNARQKARK [N34K], for which the abundance fitness worked out at 0.137 ± 0.2.
